Earlier results, collected in US10966977B2, “Combination of anti-CD20 antibody, P13 kinase-delta selective inhibitor, and BTK inhibitor to treat b-cell proliferative disorders” (TG Therapeutics, Inc., priority 2016, dated 2021).
“Also recorded” adds a separate entry of the source. Counter-ions that a name gives are not always drawn. Blank lines part the entries; values can stand above or below the molecule they belong to.

What was measured:
[1] = tested on: relapsed and refractory hematologic malignancies; details: single agent
CD20 = target: T1, CD20 (Homo sapiens, UniProt P11836)
T1 sequence (P11836 1-297): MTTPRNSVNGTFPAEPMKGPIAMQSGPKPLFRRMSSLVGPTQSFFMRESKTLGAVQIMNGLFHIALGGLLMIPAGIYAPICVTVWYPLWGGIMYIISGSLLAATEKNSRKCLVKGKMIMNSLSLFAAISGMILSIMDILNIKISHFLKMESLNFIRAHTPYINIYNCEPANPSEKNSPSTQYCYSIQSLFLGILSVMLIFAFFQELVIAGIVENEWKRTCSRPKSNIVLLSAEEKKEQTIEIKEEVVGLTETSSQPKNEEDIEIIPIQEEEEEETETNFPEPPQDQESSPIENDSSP

CD20 antigen = target: T2, CD20 antigen (Homo sapiens, UniProt P11836)
T2 sequence (P11836 1-297): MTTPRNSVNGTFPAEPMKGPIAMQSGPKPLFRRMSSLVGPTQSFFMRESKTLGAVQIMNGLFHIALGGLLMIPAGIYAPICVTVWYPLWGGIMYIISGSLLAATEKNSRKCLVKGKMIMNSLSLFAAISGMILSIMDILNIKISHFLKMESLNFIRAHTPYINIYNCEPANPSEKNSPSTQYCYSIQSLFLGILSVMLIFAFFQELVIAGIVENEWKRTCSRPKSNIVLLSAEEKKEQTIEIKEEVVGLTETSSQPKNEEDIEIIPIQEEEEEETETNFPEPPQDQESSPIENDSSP

[2] = single agent

Molecule: CC(C)Oc1ccc(-c2nn([C@@H](C)c3oc4ccc(F)cc4c(=O)c3-c3cccc(F)c3)c3ncnc(N)c23)cc1F [TGR-1202, (S)-2-(1-(4-amino-3-(3-fluoro-4-isopropoxyphenyl)-1H-pyrazolo[3,4-d]pyrimidin-1-yl)ethyl)-6-fluoro-3-(3-fluorophenyl)-4H-chromen-4-one p-toluenesulfonic acid (PTSA) salt]
hepatic toxicity [1]: no reported hepatic toxicity | tolerability ([1]; patients with relapsed or refractory hematologic malignancies): well-tolerated

dissociation rate from CD20 compared to rituximab (CD20): slower rate
Molecule: ofatumumab: anti-CD20 IgG1κ human monoclonal antibody

B1: Ublituximab: chimeric monoclonal antibody targeting a unique epitope on the CD20 antigen, glycoengineered for enhanced affinity for Fcγ RIIIa receptors (antibody, V domains shown)
VH: QAYLQQSGAELVRPGASVKMSCKASGYTFTSYNMHWVKQTPRQGLEWIGGIYPGNGDTSYNQKFKGKATLTVGKSSSTAYMQLSSLTSEDSAVYFCARYDYNYAMDYWGQGTSVTVSS
VL: QIVLSQSPAILSASPGEKVTMTCRASSSVSYMHWYQQKPGSSPKPWIYATSNLASGVPARFSGSGSGTSYSFTISRVEAEDAATYYCQQWTFNPPTFGGGTRLEIK
modifications: Ublituximab Variable heavy chain; Ublituximab Variable light chain
ADCC activity compared with rituximab and ofatumab (CD20 antigen): greater antibody-dependent cellular cytotoxicity | responses in rituximab refractory patients [2]: Responses with single agent ublituximab were observed in rituximab refractory patients; also recorded: Responses with single agent ublituximab have been observed in rituximab refractory patients
